Experimental findings from PMC5972661, “ECD1 functions as an RNA-editing trans-factor of rps14-149 in plastids and is required for early chloroplast development in seedlings” are described below.

Series [1] concerns the target T1, MBP-ECD1 (UniProt Q5G1T1 51-850).
T1 sequence: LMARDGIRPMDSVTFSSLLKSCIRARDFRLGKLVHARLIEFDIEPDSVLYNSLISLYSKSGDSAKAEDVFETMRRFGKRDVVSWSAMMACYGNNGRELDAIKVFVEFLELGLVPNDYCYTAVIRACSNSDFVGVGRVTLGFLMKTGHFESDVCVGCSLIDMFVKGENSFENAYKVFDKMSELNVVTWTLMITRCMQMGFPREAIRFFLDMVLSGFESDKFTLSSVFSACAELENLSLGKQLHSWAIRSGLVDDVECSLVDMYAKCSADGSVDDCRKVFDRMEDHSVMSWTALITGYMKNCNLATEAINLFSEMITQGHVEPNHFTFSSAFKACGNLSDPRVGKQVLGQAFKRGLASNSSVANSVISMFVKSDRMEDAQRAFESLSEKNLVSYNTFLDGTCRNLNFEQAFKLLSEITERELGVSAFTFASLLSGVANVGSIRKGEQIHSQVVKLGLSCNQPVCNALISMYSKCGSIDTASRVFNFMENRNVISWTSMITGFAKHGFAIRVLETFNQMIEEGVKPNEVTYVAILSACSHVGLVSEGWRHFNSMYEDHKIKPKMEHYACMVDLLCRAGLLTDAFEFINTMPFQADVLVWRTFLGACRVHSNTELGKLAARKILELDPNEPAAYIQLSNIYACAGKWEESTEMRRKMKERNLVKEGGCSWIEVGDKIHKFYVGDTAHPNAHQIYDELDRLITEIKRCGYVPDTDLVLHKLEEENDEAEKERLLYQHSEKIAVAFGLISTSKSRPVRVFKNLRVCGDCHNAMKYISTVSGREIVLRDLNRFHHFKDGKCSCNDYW
The series is described as follows: EMSA; 25, 50, 100 nM protein, 10 nM probe; unlabeled same RNA (10-, 50-, 100-fold) used as competitor confirmed specificity; LightShift Chemiluminescent RNA EMSA Kit (Thermo 20158), 20 min at 25 °C, 6% Tris-borate gel in 0.5x TBE; binding buffer, salt and pH not stated. The settings on record: protein: recombinant; tags: N-terminal MBP; primer adds HHHHHH-ENLYFQG (TEV site); label: 5' biotin; single strand. In general terms: A gel shift assay detects complexes by their altered migration in electrophoresis.

The target of series [2] is T1, MBP-ECD1. The series is described as follows: EMSA; 25, 50, 100 nM protein, 10 nM probe; LightShift Chemiluminescent RNA EMSA Kit (Thermo 20158), 20 min at 25 °C, 6% Tris-borate gel in 0.5x TBE; binding buffer, salt and pH not stated. The note with it: protein: recombinant; tags: N-terminal MBP; primer adds HHHHHH-ENLYFQG (TEV site); label: 5' biotin; single strand.

B1: rps14-149 (ssRNA)
RNA: GAAAAUUCAUGGAAAAUUACAAUCCCCACCGCG
In the case of B1, the binding result in series [1] is on record as “binds”.

B2: rps14-80 (ssRNA)
RNA: AAAUAUCAUUUGAUUCGUCGAUCCUCAAAAAAG
As to B2, in series [2], the binding result is recorded as “no binding”.
